In PMC4141501:
Read-outs that look alike come from different tables or passages of the source.

Key:
[1] = target: human EWI2 wild-type with palmitate-free cytoplasmic cysteines (after hydroxylamine or 2BP) (human) (UniProt Q969P0); experiment: cross-linking
[2] = target: human EWI2 wild-type with palmitate-free cytoplasmic cysteines (after hydroxylamine or 2BP) (human) (UniProt Q969P0); experiment: cross-linking; remark: listed apart in the source

human EWI2 wild-type with palmitate-free cytoplasmic cysteines (after hydroxylamine or 2BP) (from UniProt Q969P0 28-613) (natural protein)
percent of EWI2 molecules dimerized [1]: 11% | stoichiometry N [1]: 2 | percent of EWI2 molecules dimerized [2]: 78% | stoichiometry N [2]: 2
